The values below come from the nanobody polyreactivity screen of Harvey et al. (2022).

The nature of this data set: yeast display, Sf9 membrane polyspecificity reagent, FACS + sequencing; frameworks hold sequencing errors. In a few lines: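 Using colony PCR, genes from sorted yeast display clones were amplified, then sequenced on MiSeq at 2 × 250 and filtered by CDR length. The clones had been stained with 10% biotinylated, detergent-solubilized Sf9 membrane reagent for 1 hour at 4 °C and sorted by FACS into low and high (top ~1%) gates on anti-HA and streptavidin fluorescence. Polyreactivity labels come from the gate of origin.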
For the sequence “QVQLVESGGGLVQAGGSLRFSCAASGGIFFRNAMGWYRQAPGKERELVAVISSGGSTYYADSVKGRFTISRDNAKNTVYLQMNSLKPEDTAVYYCAARRKRPVYTVTLHYPYNYWGQGTQVTVSS”, the “polyreactivity (PSR sort gate)” value was “high polyreactivity”.

“QVQLVESGGGLVQAGGSLRFSCAASGGTFFLNVMGWYRPAPGKERELVAAITNSAGSTYYADSVKGRFTISRDNAKNTVYLQMNSLKPEDTAVYYCATDWSKVAGYTSYDYWGQGTQVTVSS”: the “polyreactivity (PSR sort gate)” value is recorded as “low polyreactivity”.

Consider “QVQLVESGGGLVQAGGSLRFSCAASGITFVYYARGWYRQAPGKERELVAAITRSGDSTYYADSVKGRFTISRDNAKNTVYLQMNSLKPEDTAVYYCAAESYYSTYQVEYYDWGQGTQVTVSS”, for which the “polyreactivity (PSR sort gate)” value is recorded as “high polyreactivity”.

For “QVQLVESGGGLVQAGGSLRFSCAASGRIFYPYAMGWYRQAHGKERELVAAIRRSGVDTYYADSVKGRFTISRDNAKNTVYLQMNSLKPEDTAVYYCAADPYWFFPHYDSWGQGTQVTVSS”, the “polyreactivity (PSR sort gate)” value is on record as “low polyreactivity”.

For the sequence “QVQLVESGGGLVQAGGSLRFSCAASGSIFKGNVMGWYRQAPGKERELVAAITWSGGSTYYADSVKGRFTISRDNAKNTVSLQMNSLKPEDTAVYNCNTRWILGRRFYYWGQGTQVTVSS”, the “polyreactivity (PSR sort gate)” value is listed as “high polyreactivity”.

“QVQLVESGGGLVQAGGSLRFSCAASGSIFWSNAMGWYRQAPGKERELVAAITTSDGSTYYADSVKGRFTISRDNAKNTVYLQMNSLKPEDTAVYYCAADTYYVSYGYYYWGQGTQVTVSS”: the “polyreactivity (PSR sort gate)” value was “low polyreactivity”.

As for “QVQLVESGGGLVQAGGSLRFSCAASGSSFGANTMGWYRQAPGKERELVAGITSGARTYYADSVKGRFTISRDNAKNTVYLQMNSLKPEDTAVYYCAAKYAWRRYGYWGQGTQVTVSS”, the “polyreactivity (PSR sort gate)” value was “high polyreactivity”.

For “QVQLVESGGGLVQAGGSLRFSCAASGSTFFGNTMGWYRQAPGKERELVAAISRRGGSTYYADSVKGRFTISRDNAKNTVYLQMNSLKPEDTAVYYCAKYYHSGGYTPGKYDYWGQGTQVTVSS”, the “polyreactivity (PSR sort gate)” value is “high polyreactivity”.

Take “QVQLVESGGGLVQAGGSLRFSCAASGSTFGTYAMGWYRQAPGKERELVAAISWSGGSTYYADSVKGRFTISRDNAKNTVYLQMNSLKPEDPAVYWGQGTQVTVSS”: the “polyreactivity (PSR sort gate)” value is reported as “low polyreactivity”.

In the case of “QVQLVESGGGLVQAGGSLRFSCAASGSTFTRYAMGWYRQAPGKERELVAAISWSGGITYYADSVNGRFTISRDNAKNTVYLQMNSLKPEDTAVYYCAAKRRYTRGGYGVDYWGQGTQVTVSS”, the “polyreactivity (PSR sort gate)” value is on record as “high polyreactivity”.

In the case of “QVQLVESGGGLVQAGGSLRFSCAASGSTVYSYAMGWYRQAPGKERELVAAITRGGRTYYADSVKGRFTISRDNAKNTVYFKMNSLKPEDTAVYSCKVVTKFTGRGYDYWGQGSQVTVSS”, the “polyreactivity (PSR sort gate)” value is given as “high polyreactivity”.

“QVQLVESGGGLVQAGGSLRFSCAASGSTYYYNAMGWDRQAPGKERELVASISWSGGSTRYADSVKGRFTISRDNAKNTVYLQMNSLKPEDTAVYYCAARYILSKYGSGVRYNYWGQGTQVSVSS”: the “polyreactivity (PSR sort gate)” value was “high polyreactivity”.

As for “QVQLVESGGGLVQAGGSLRFSCAASRRTFANNAMGWYRQAPGKERELVAAISSGGNTYYADSVKGRFTISRDNAKNTVYLQMNSLKPEDTAVYYCAARYWIYRSEYDYWGQGTQVTVSS”, the “polyreactivity (PSR sort gate)” value is recorded as “high polyreactivity”.

“QVQLVESGGGLVQAGGSLRFSCADSGRILSLYAMGWSRQAPGKERELVASINWSDGSTYYADSVKGRFTISRDKAKNTVYLQMNSLKPEDTAVYYCNVDVRSYVAGYDYWGQGTLVTVSS”: the “polyreactivity (PSR sort gate)” value is “low polyreactivity”.

In the case of “QVQLVESGGGLVQAGGSLRFSCADSGRTFRYYAMGWDIQARGKERELVAAISRGGRTNYGDSVKGRFTISRDNAKNTVYIQMNSLKPVDTAVYYCAVGGYSYYTVGYDYWGQGTQVTVSS”, the “polyreactivity (PSR sort gate)” value is “high polyreactivity”.

As to “QVQLVESGGGLVQAGGSLRFSCSASGSIFGYNTMGWYRPAPGKERQLVAAISKSGGSTYYADSVKGRFTISRDNAKNTVYLQMNSLKPEDSAVYYCATYAKQLSPYYYWGQGIQVTVSS”, the “polyreactivity (PSR sort gate)” value is on record as “high polyreactivity”.

Take “QVQLVESGGGLVQAGGSLRFSFAASGINFRFNAMGWYRQAPGKEREFVAAITYSGDSTYYADSVKGRFTISRDNAKNTVFLQMNSLKREDTAVYYCAADYYAISRRIFYYWGQGTQVTVSS”: the “polyreactivity (PSR sort gate)” value is “low polyreactivity”.

For the sequence “QVQLVESGGGLVQAGGSLRFSSAASGSIFQSYPMGLYRPAPGKERELVAAITRSGGRTYYADSVKGRFTISRDNAKNTVYLQMNSLKPEDTAVYYCAAFGWGYGYWGQGTQVTVSS”, the “polyreactivity (PSR sort gate)” value is “high polyreactivity”.

In the case of “QVQLVESGGGLVQAGGSLRIRCAASGSIFGFYALGWSRHAPGKERELVASISWRGSRTYYADSVKGRFTISRDNAKNTVYLQMNSLKPEDSAVYYCNAVAYVSSPQYVSTATGYGYWGQGTQVTVSS”, the “polyreactivity (PSR sort gate)” value was “high polyreactivity”.

On to “QVQLVESGGGLVQAGGSLRIRCAASGSTFSEYDMGWYRQAPGKERELVAAITTSGGSTYYADSVKGRFTISSDNAKNTVYLQMNSLKPEDTAVYYCAADSIGNYLLYDYWGQGTQVSVSS”, for which the “polyreactivity (PSR sort gate)” value was “low polyreactivity”.

Take “QVQLVESGGGLVQAGGSLRIRCAATGFIFLDYAMGWYRQAPGKERELVAAISSRGARTYYADSVKGRFTISRDNAKNTVYLQMNSLKPEDTAVYYCAARGPLDRYGYWGQGTQVTVSS”: the “polyreactivity (PSR sort gate)” value was “high polyreactivity”.

Regarding “QVQLVESGGGLVQAGGSLRIRSAASGGIIWWNAMGWYIQAPGKERELVAAISRSGGTTYYADSVKGRFTISRDNEKNSVYLQMNSLKPEDTAVYFCAAQYRYPGFNYWGQGSQVTVSS”, the “polyreactivity (PSR sort gate)” value is “high polyreactivity”.

For “QVQLVESGGGLVQAGGSLRISCAASAITFEPYAMGWYRQAPGTEREFVAAISRSGGSTYYADSVKGRFTISRDNAKNTVYLQMNSLKPEDTAVYYCAADSWIGPDYGHDYRGQGTQVTVSS”, the “polyreactivity (PSR sort gate)” value is given as “high polyreactivity”.

Turning to “QVQLVESGGGLVQAGGSLRISCAASARTLKRNAMGWYRQAPGKERELVAAISFRVTNTYYADSVKGRFTISRDNAKNTVYLQMYSLKPEDTAVYYCAVPDSRFYSPRRVSPHDYWGQGTQVTVSS”, the “polyreactivity (PSR sort gate)” value is on record as “high polyreactivity”.

With “QVQLVESGGGLVQAGGSLRISCAASESIFPVYAMGWYRQAPGKERELVATITDGGGDTYYADSLKGRFTISRDNAKNTVYLQMNSLKPEDTAVYYCAARSMPEWSAYWYDYWGQGTQVTVSS”, the “polyreactivity (PSR sort gate)” value was “low polyreactivity”.

“QVQLVESGGGLVQAGGSLRISCAASGATFYYYAMGWYRQAPGKERELVASTYYADSVKGRFSISRDNAKNTVYLQMKSLKPEDTAVYYCAKRFKATYEYDYWGQGTQVTVSS”: the “polyreactivity (PSR sort gate)” value is listed as “low polyreactivity”.

As to “QVQLVESGGGLVQAGGSLRISCAASGFIIYGYVMGWYRQAPGKERELVAAINSSSGRTYYADSVKGRFTISRDNAKNTVYLQMNSLKPEDTAVYYCAAYYYCSYDGTPYDYWGQGTQVTVSS”, the “polyreactivity (PSR sort gate)” value is listed as “low polyreactivity”.

“QVQLVESGGGLVQAGGSLRISCAASGFTFPLYAMGWYRQAPGKERELVAAINYRGSSTYYADSVKGRFTISRDNAKNTVYLHMNSLKPEYTAVYYCNAADPVWNQVYWGSNEYDYWGQGTQVTVSS”: the “polyreactivity (PSR sort gate)” value is “high polyreactivity”.

“QVQLVESGGGLVQAGGSLRISCAASGFTFRSYSMGWYRQAPGKERELVAAITSTGGRTYYADSVKGRFTISRDNAKNTVYLQMNILNPEDTAVYYWAAGRKHFGPVHFGYWGQGTQVTVSW”: the “polyreactivity (PSR sort gate)” value is given as “high polyreactivity”.

For the sequence “QVQLVESGGGLVQAGGSLRISCAASGFTFRYNAMGWYRQAPVKERELVATISSRGGSTNYADSVKGRFTISRDNAKNTVYLLMNSLKPEDTAVYYCNNVRYRDLKRYDYWGQGTQVTVSS”, the “polyreactivity (PSR sort gate)” value is listed as “high polyreactivity”.

On to “QVQLVESGGGLVQAGGSLRISCAASGFTLSYYAMGWYRQAPGKERELVASISAIGGITYYADSVKGRFTISRDNAKNTVYLQMNSLKPEDTAVYYCARQGRRYRRFDSWGQGTQVTVSS”, for which the “polyreactivity (PSR sort gate)” value is listed as “high polyreactivity”.

“QVQLVESGGGLVQAGGSLRISCAASGFTVWGYAMGWYRQAPGKERELVAGITTRGGSTYYADSVKGRFTISRDNAKNTVYLQMNSLKPEDTAVYYCNVVSSTRTYRYDYWGQGTQVTVSS”: the “polyreactivity (PSR sort gate)” value is reported as “high polyreactivity”.

As to “QVQLVESGGGLVQAGGSLRISCAASGIILGYYPMGWYRQAPGKERELVAAINWSGASTYYADSVKGRFTISRDNAKNTVYLQMNCLKPEDTAVYDCNAVGYYYRGTGEYDYWGQGTQVTVSS”, the “polyreactivity (PSR sort gate)” value is listed as “high polyreactivity”.

As to “QVQLVESGGGLVQAGGSLRISCAASGITFDQNAMGWYRQAPGKEREFVGAITRGSSTNYADSVKGRFTISRDNAKNTVYLQMNSLKPEETAVYYCNADGYARFRTYYCRDTREYDYWGQGTQVTVSS”, the “polyreactivity (PSR sort gate)” value is given as “low polyreactivity”.

In the case of “QVQLVESGGGLVQAGGSLRISCAASGITFLEYAMGWYRQAPGKERELVATINSGGSTNYADSVKGRFTISRDNAKNTVYLQMNSLKQEDNAVYYCSADYGSDYTKGDYWGQGTQVTVSS”, the “polyreactivity (PSR sort gate)” value was “low polyreactivity”.

In the case of “QVQLVESGGGLVQAGGSLRISCAASGITFSYYAMGWYIQAPGKERELVAAINSGGGSTYYADSVKGRFTISRDNAKNTVYLQMNRLKPEDTAVYYFAARYRSRYDYYYDRDYWGQGTQVTVSS”, the “polyreactivity (PSR sort gate)” value was “low polyreactivity”.

As for “QVQLVESGGGLVQAGGSLRISCAASGITFYANVMGWYRQAPGKARELVAAISARRGSTYYADSVKGRFTISRDNAKNTVYLQMNSLKPEDTAVYYCATREAYRQQGGYGYWGQGTQVTVSS”, the “polyreactivity (PSR sort gate)” value was “high polyreactivity”.

On to “QVQLVESGGGLVQAGGSLRISCAASGITFYGYDMGWYRQAPGKERELVAAISKSGGSTHYADSVKGRFTISRDNAKNTVYLQMNSLKPEDTAVYYCAAAYWTRLRRMDYWGQGTQVTVSS”, for which the “polyreactivity (PSR sort gate)” value is “high polyreactivity”.

On to “QVQLVESGGGLVQAGGSLRISCAASGLTFDRYAMGWYRQAPGKERELVAAISGSGSSTYYADSAKGRFTISRDNAKNTVYLQMNSLKPEDTAVYYCAADRDLGYDTRYNYWGQGTQVTVSS”, for which the “polyreactivity (PSR sort gate)” value is “low polyreactivity”.

Consider “QVQLVESGGGLVQAGGSLRISCAASGLTFRLYVMGWYRQAPGKERELVATISRSGGSTHYADSVKGRFTISRDNAKNTVYLQMNSLKPEDTAVYDCAARLFYFGSDFDYWGQGTQVTVSS”, for which the “polyreactivity (PSR sort gate)” value was “high polyreactivity”.

Turning to “QVQLVESGGGLVQAGGSLRISCAASGMIFDWYTMGWYRQAPGKERELVAAISWRGGRTYYADSVKGRFTISRDNAQNTVYLQMNSLKPEDTAVYYCAAEGLFTGRVSRFADDHWGQGTQVTVSS”, the “polyreactivity (PSR sort gate)” value is “low polyreactivity”.
